The values that follow come from US20150204859, “MULTIPLEXED MICROCOLUMN DEVICES AND PROCESSES FOR SELECTION OF NUCLEIC ACID APTAMERS” (CORNELL UNIVERSITY, published 2015).

Where only a bound is given, the exact number is not on record here.

Data set [1] deals with GFP (UniProt P42212). Particulars: RNA transcript; printed sequence is the DNA template strand (RNA is its reverse complement); microcolumn qPCR recovery fit by simulation; non-specific background binding.
The target of data set [2] is T1, hHSF2 (Homo sapiens, UniProt Q03933 Q03933:1-536). The experiment in a line: EMSA; confirmed by FP (FIG. 22B); exact value only in figure. Particulars: tags: N-terminal GST; E. coli BL21(DE3)-RIPL; label: 3'-fluorescein (5-thiosemicarbazide). As for the experimental part:
(§1) The candidate aptamers were 3′-end labeled with fluorescein 5-thiosemicarbazide (Invitrogen) as described previously (Ref. 16). 50 μL binding reactions were prepared with 2 nM fluorescently-labeled RNA and decreasing amounts of protein (2000 to 0 nM) in binding buffer containing 0.01% IGEPAL CA630, 10 μg/ml tRNA, and 3U of SUPERase•In RNase Inhibitor (Invitrogen). […] The gel was run for 80 minutes at 100 volts in refrigerated 0.5×TBE. Images were acquired using the fluorescein scan settings on a Typhoon 9400 imager (GE Healthcare Life Sciences). The resulting bands were quantified with ImageQuant software and the data was fit to the Hill equation using Igor (Wavemetrics) to estimate the equilibrium dissociation constant (KD).
(§2) The putative RNA aptamers were fluorescently end-labeled and then tested for binding to their hHSF targets using F-EMSA and FP assays (Ref. 16). An image of a typical F-EMSA result is shown in FIG. 17A for hHSF1-R5-1 aptamer binding to hHSF1 protein. […] The F-EMSA results were confirmed by the FP assays (FIGS. 22 and 23). Thus, the observed binding is not due to the affinity tags on the protein targets but rather specific domains of the targets themselves.
For orientation: A gel shift assay detects complexes by their altered migration in electrophoresis.

In data set [3] the target is T2, hHSF1 (Homo sapiens, UniProt Q00613 Q00613:1-529). The experiment in a line: EMSA; room temperature 2 h, 10 ug/ml tRNA; confirmed by FP (FIG. 22A); exact value only in figure. Particulars: tags: N-terminal GST; E. coli BL21(DE3)-RIPL; label: 3'-fluorescein (5-thiosemicarbazide). As to the method:
as §1, §2

The target in data set [4] is T3, GST tag (UniProt P08515 P08515:1-218). The experiment in a line: EMSA; no binding to GST tag alone; FP FIG. 22D. The settings on record: tags: GST tag alone, ~30 kDa; label: 3'-fluorescein (5-thiosemicarbazide). As to the method:
as §1, §2

For data set [5], the target named is T1, hHSF2. The experiment in a line: EMSA; room temperature 2 h, 10 ug/ml tRNA; confirmed by FP (FIG. 23B); exact value only in figure. The settings on record: tags: N-terminal GST; E. coli BL21(DE3)-RIPL; label: 3'-fluorescein (5-thiosemicarbazide). As to the method: as §1, §2
For data set [6], the target named is T2, hHSF1. The experiment in a line: EMSA; confirmed by FP (FIG. 23A); exact value only in figure. The settings on record: tags: N-terminal GST; E. coli BL21(DE3)-RIPL; label: 3'-fluorescein (5-thiosemicarbazide). As to the method: as §1, §2
In data set [7] the target is T3, GST tag. The experiment in a line: EMSA; no binding to GST tag alone; FP FIG. 23D. The settings on record: tags: GST tag alone, ~30 kDa; label: 3'-fluorescein (5-thiosemicarbazide). As to the method: as §1, §2

T3 sequence (P08515 whole entry, one chain of several): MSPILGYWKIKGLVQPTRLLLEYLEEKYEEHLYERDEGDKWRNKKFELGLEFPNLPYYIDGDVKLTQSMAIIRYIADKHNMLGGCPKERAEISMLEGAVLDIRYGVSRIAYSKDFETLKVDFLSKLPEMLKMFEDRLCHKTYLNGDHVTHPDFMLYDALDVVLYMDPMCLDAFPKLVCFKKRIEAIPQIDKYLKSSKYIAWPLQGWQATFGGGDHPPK
T2 sequence (Q00613 whole entry, one chain of several): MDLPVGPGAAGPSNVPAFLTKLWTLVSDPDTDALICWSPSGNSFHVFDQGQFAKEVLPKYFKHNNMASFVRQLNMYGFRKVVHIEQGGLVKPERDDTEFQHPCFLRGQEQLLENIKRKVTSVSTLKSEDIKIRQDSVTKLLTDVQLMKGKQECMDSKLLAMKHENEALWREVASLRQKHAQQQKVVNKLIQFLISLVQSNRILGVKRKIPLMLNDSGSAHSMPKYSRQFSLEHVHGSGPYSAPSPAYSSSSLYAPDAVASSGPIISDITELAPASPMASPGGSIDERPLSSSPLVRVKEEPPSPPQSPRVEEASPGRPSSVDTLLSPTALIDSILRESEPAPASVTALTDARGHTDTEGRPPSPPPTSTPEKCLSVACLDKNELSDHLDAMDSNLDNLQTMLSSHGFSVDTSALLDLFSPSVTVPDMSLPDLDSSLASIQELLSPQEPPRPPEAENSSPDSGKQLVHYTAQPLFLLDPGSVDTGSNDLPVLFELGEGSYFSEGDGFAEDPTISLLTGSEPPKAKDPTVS
T1 sequence (Q03933 whole entry, one chain of several): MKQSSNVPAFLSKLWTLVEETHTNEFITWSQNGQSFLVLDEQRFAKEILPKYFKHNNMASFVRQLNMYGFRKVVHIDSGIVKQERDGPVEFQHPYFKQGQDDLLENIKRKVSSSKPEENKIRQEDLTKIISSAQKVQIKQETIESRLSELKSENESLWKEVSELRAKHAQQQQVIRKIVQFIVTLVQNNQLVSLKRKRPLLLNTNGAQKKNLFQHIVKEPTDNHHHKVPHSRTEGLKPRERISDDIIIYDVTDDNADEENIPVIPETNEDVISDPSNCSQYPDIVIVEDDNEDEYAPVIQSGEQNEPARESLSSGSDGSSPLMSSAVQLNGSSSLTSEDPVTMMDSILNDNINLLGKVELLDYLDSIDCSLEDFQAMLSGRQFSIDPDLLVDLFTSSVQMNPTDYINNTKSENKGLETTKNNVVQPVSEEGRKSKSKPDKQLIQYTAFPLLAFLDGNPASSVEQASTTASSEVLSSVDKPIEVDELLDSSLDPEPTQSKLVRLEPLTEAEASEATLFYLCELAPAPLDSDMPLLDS

For “AAGCUUCGUCAAGUCUGCAGUGAANNNNNNNNNNNNNNNNNNNNNNNNNNNNNNNNNNNNNNNNNNNNNNNNNNNNNNNNNNNNNNNNNNNNNNGAAUUCGUAGAUGUGGAUCCAUUCCC [N70 random RNA library]”, in data set [1], the Kd (usually the concentration at which binding is half-saturated) is more than 10000 nM.

B1: hHSF1-R5-1 (ssRNA)
RNA: GGGAAUGGAUCCACAUCUACGAAUUCAAUCAAGUCCCCAGACUCAGCAACACUGGACAGCGAUAUGCAGAUAACCAAGACCAAUUCACUCCAGUUCACUGCAGACUUGACGAAGCUU
For B1, the Kd in data set [2] and in data set [3] was less than 20 nM each time. The binding result in data set [4] was “no binding”.

B2: hHSF2-R5-2 (ssRNA)
RNA: GGGAAUGGAUCCACAUCUACGAAUUCAAUCAAGUCCCCAGACUCAGCAACACUGGACAGCGAUAUGCAGAUAACCAAGACCAAUUCACUCCAGUUCACUGCAGACUUGACGAAGCUU
Regarding B2, the dissociation constant (Kd) in data set [5] and in data set [6] was less than 20 nM throughout. The binding result in data set [7] is “no binding”.
